Measured values reported in patent publication US20140315811A1, “OPHTHALMIC PREPARATIONS BASED ON PACAP (PITUITARY ADENYLATE CYCLASE ACTIVATING POLYPEPTIDE) WHICH RESTORE THE NORMAL VISUAL FUNCTION IN EARLY GLAUCOMA” (HMFRA HUNGARY LIMITED LIABILITY COMPANY, priority 2011, published 2014).

Tests used:
[1] = tested on: DBA/2J mouse (retinal ganglion cells / inner nuclear layer response); assay: Pattern electroretinogram (P-ERG) after repeated topical application in murine spontaneous glaucoma model; format: in vivo
Excerpt: The PACAP receptor, called PAC1, is known to be expressed in the ganglion cells (Seki et al. 1997; 2000; D'Agata and Cavallaro 1998; Hannibal and Fahrenkrug 2004; Kubrusly et al. 2005). The activity of PACAP was verified in the most common experimental model of spontaneous glaucoma, a double mutant mouse called DBA/2J (John et al., 1998; Chang et al., 1999). The DBA/2J mouse presents homozygous mutations of two separate genes; the first is […] (Tyrpl−/−) coding for a melanosome protein, and the second is a membrane glycoprotein (Gpnmb−/−); pigment granules accumulate in the trabecular meshwork, similar to the form of pigmentary glaucoma, with consequent trabecular degeneration, atrophy of the iris and progressive impairment of the outflow of aqueous humor, which leads to an increase in IOP.
This mouse is characterised by a progressive increase in IOP, with progressive loss of the retinal response to structured visual stimuli (which may be lattices formed by pale strips alternating with dark strips, or chess pieces, with different contrasts and sizes) which depends on the inner nuclear layer/ganglion cells; in humans and in the animal model, this retinal response is called the pattern electroretinogram (P-ERG; Domenici et al.,1991; Ventura and Porciatti, 2006; Falsini et al., 2008). The dysfunction of the ganglion cells is followed at a late stage by degeneration of the ganglion cells, with a reduction in their density and progressive atrophy of the optic nerve (Ventura et al., 2006; Buckingham et al., 2008). […] At the age of 11 months the IOP rises further; a progression of the disorder similar to that which takes place in human patients can therefore be deduced. […]

[2] = tested on: DBA/2J mouse (photoreceptors and outer nuclear layer response to light); assay: Flash ERG after repeated topical application in murine spontaneous glaucoma model; format: in vivo; details: PACAP 50 μM in saline, two weeks, one treatment every 48 h
Excerpt: The other type of electroretinogram, flash ERG, which measures the response of the photoreceptors and the outer nuclear layer to light, appears wholly intact in glaucoma, further supporting the theory that this is a type of disorder affecting the inner nuclear layer, namely the ganglion cells, at least at the early stage.

[3] = tested on: cAMP levels in the retina; assay: Determination of cAMP levels in the retina after topical application of PACAP 38 (Cyclic AMP EIA kit, retinal homogenate); format: in vivo, mice (C57BL-6J); details: topical application into conjunctival sac, PACAP 50 μM (0.226 μg/μl) in saline (0.9% NaCl) and acetic acid (5%); 6 hours after application; Student's t-test p<0.05
Method: • The preparation Based on Saline Solution (0.9% NaCl) Containing PACAP 38 was Used
The test was conducted on mice (C57BL-6J, Harlan, Italy); PACAP 38 was applied topically, instilled into the conjunctival sac of one eye, while the other eye, used as control, was treated with the saline solution (“placebo”) only. • Determination of cAMP Levels in the Retina
The animals were sacrificed 6 hours after the topical application, when deep anaesthesia had been induced by an intraperitoneal urethane injection (20%). The eye was then removed, and the cAMP level measured in the retinal homogenate of the eye treated with PACAP and of the other eye treated with saline only (control eye). The measurements were performed by cyclic AMP assay using the Cyclic AMP EIA KIT ([…]). The results shown in the chart in FIG. 1 were obtained with a topical application of PACAP (50 μM; 0.226 μg/μl) in saline solution (0.9% NaCl) and acetic acid (5%), and are expressed as relative values (%) compared with the control eye.

In the case of “Pituitary Adenylate Cyclase Activating Polypeptide [PACAP]”, the “Effectiveness on P-ERG across the three concentrations tested” value ([1]; 500 nM (0.0022 μg/μl), 1 μM (0.0045 μg/μl), 50 μM (0.226 μg/μl), topical, every 48 hours for two weeks, 8-month-old mice) is reported as “only the highest concentration (50 μM, 0.226 μg/μl) proved effective”, the “Effect on alteration of P-ERG (treated eye vs control eye)” value ([1]; PACAP 50 μM (0.226 μg/μl) in saline, topical, one application every 48 hours for 2 weeks between 8 and 8.5 months of age, p<0.05) is reported as “prevented the alteration of P-ERG” and the “Minimal effective concentration able to exert protective effects on the ganglion cell function” value ([1]; repeated topical treatment, DBA/2J mouse, early stage glaucoma) is reported as 0.226 µg/µL. For the same substance, the “Flash ERG of the treated eye (response of photoreceptors and outer nuclear layer to light)” value [2] was “normal flash ERG” and the “cAMP level in retinal homogenate, treated eye compared with control eye” value [3] was “significantly higher”.
